Consider 46 substances from patent US11957716B2 (Immatics Biotechnologies GmbH, priority 2021, dated 2024).

Assay [1] deals with HLA-A*01:01, HLA-A*02:01, HLA-A*03:01, HLA-A*24:02, HLA-B*07:02, HLA-B*08:01 and HLA-B*44:02. As to the kind of experiment: HLA alleles the peptides bind to (Table 7). In kind it is binding, human. Particulars: allotype from the group HLA-A*01:01, HLA-A*02:01, HLA-A*03:01, HLA-A*24:02, HLA-B*07:02, HLA-B*08:01, HLA-B*44:02. An excerpt:
However, due to similarities in binding pattern such as the relevant anchoring positions some peptides bind to more than one allele, such an overlap is most likely, but not limited to, HLA-A*01 binding peptides also binding to HLA-B*15, HLA-A*03 binding peptides also binding to HLA-A*11, HLA-B*07 binding peptides also binding to HLA-B*35 and HLA-B*51.

Assay [2] has as its target HLA-A*24:02 (Homo sapiens, UniProt P04439, D101N/D140Y/D185E/E176V/E190D/F33S/G103R/G107R/I119L/I121M/I306V/K335N/L105A/L180Q/L300P/N151K/N90K/Q86E/Q94H/R106L/R138H/R89G/T104I/T345S/V100E/W191G/Y123F). As to the kind of experiment: MHC binding assay, UV-ligand exchange ELISA. Particulars: peptide exchange yield, binding to HLA-A*24:02. From the text: (§1) Candidate peptides for T cell based therapies according to the present invention were further tested for their MHC binding capacity (affinity). The individual peptide-MHC complexes were produced by UV-ligand exchange, where a UV-sensitive peptide is cleaved upon UV-irradiation and exchanged with the peptide of interest as analyzed. Only peptide candidates that can effectively bind and stabilize the peptide-receptive MHC molecules prevent dissociation of the MHC complexes. To determine the yield of the exchange reaction, an ELISA was performed based on the detection of the light chain (β2m) of stabilized MHC complexes. The assay was performed as generally described in Rodenko et al. (Rodenko et al., 2006).
(§2) 96 well MAXISorp plates (NUNC) were coated over night with 2 μg/ml streptavidin in PBS at room temperature, washed 4× and blocked for 1 h at 37° C. in 2% BSA containing blocking buffer. Refolded HLA-A*02:01/MLA-001 monomers served as standards, covering the range of 15-500 ng/ml. Peptide-MHC monomers of the UV-exchange reaction were diluted 100-fold in blocking buffer. Samples were incubated for 1 h at 37° C., washed four times, incubated with 2 μg/ml HRP conjugated anti-82m for 1 h at 37° C., washed again and detected with TMB solution that is stopped with […]. Absorption was measured at 450 nm. Candidate peptides that show a high exchange yield (preferably higher than 50%, most preferred higher than 75%) are generally preferred for a generation and production of antibodies or fragments thereof, and/or T cell receptors or fragments thereof, as they show sufficient avidity to the MHC molecules and prevent dissociation of the MHC complexes.
A general note: An ELISA detects its analyte on a solid surface through an enzyme-linked reagent.

The target of assay [3] is HLA-B*07:0 (Homo sapiens, UniProt P01889). As to the kind of experiment: MHC binding assay, UV-ligand exchange ELISA. Particulars: peptide exchange yield, binding to HLA-B*07:0.
Source text: as §1, §2

For the substance “3 (VYIASSFKI; listed as Homo sapiens) [compound 3]”, in assay [1], the “Binders (HLA alleles the peptides according to the invention bind to)” value (from here on “Binders”) is recorded as “HLA-A*24:02”. For the same substance, the Peptide exchange result in assay [2] is on record as “++++ (75% = ++++)”.

Consider “6 (SHSLPAFTL; listed as Homo sapiens) [compound 6]”, for which the “Binders” value in assay [1] was “HLA-A*24:02”. Also, the Peptide exchange result in assay [2] is recorded as “++ (20% = ++)”.

For the substance “7 (IYIPTNSIYKF; listed as Homo sapiens) [compound 7]”, in assay [1], the “Binders” value was “HLA-A*24:02”. Further, the Peptide exchange result in assay [2] was “++++ (75% = ++++)”.

In the case of “13 (LYDTVTHTF; listed as Homo sapiens) [compound 13]”, the “Binders” value in assay [1] is given as “HLA-A*24:02”. The Peptide exchange entry in assay [2] is given as “++++ (75% = ++++)”.

Take “14 (ILAPPQRISF; listed as Homo sapiens) [compound 14]”: the “Binders” value in assay [1] is recorded as “HLA-A*24:02”. Further, the Peptide exchange result in assay [2] is on record as “++++ (75% = ++++)”.

Take “16 (NFHTLAQQLLF; listed as Homo sapiens) [compound 16]”: the “Binders” value in assay [1] was “HLA-A*24:02”. In addition, the Peptide exchange result in assay [2] is “++++ (75% = ++++)”.

Take “31 (VFLLLPYPRF; listed as Homo sapiens) [compound 31]”: the “Binders” value in assay [1] is “HLA-A*24:02”. Also, in assay [2], the Peptide exchange entry was “++++ (75% = ++++)”.

For the substance “33 (AYIPFPPLI; listed as Homo sapiens) [compound 33]”, the “Binders” value in assay [1] is reported as “HLA-A*24:02”. Further, the Peptide exchange result in assay [2] is given as “++++ (75% = ++++)”.

Consider “40 (LYQTTIELF; listed as Homo sapiens) [compound 40]”, for which the “Binders” value in assay [1] is “HLA-A*24:02”. Also, in assay [2], the Peptide exchange entry is given as “++++ (75% = ++++)”.

For “43 (VFIPSVINL; listed as Homo sapiens) [compound 43]”, the “Binders” value in assay [1] was “HLA-A*24:02”. Further, the Peptide exchange result in assay [2] was “++++ (75% = ++++)”.

For the substance “47 (LYIFTTRPF; listed as Homo sapiens) [compound 47]”, the “Binders” value in assay [1] was “HLA-A*24:02”. The Peptide exchange entry in assay [2] is “++++ (75% = ++++)”.

Turning to “49 (IYFHLNNWTI; listed as Homo sapiens) [compound 49]”, in assay [1], the “Binders” value is listed as “HLA-A*24:02”. The Peptide exchange entry in assay [2] is on record as “++++ (75% = ++++)”.

In the case of “62 (SFSLLLPYL; listed as Homo sapiens) [compound 62]”, in assay [1], the “Binders” value is recorded as “HLA-A*24:02”. Also, the Peptide exchange entry in assay [2] is on record as “+++ (50% = +++)”.

As to “67 (GRFWLPFNF; listed as Homo sapiens) [compound 67]”, the “Binders” value in assay [1] is recorded as “HLA-A*24:02”. Moreover, in assay [2], the Peptide exchange result is recorded as “++ (20% = ++)”.

Turning to “69 (KYPTIICGF; listed as Homo sapiens) [compound 69]”, the “Binders” value in assay [1] is given as “HLA-A*24:02”. Also, the Peptide exchange result in assay [2] was “++++ (75% = ++++)”.

In the case of “76 (VQSGVPSRF; listed as Homo sapiens) [compound 76]”, the “Binders” value in assay [1] is given as “HLA-A*24:02”. Besides, in assay [2], the Peptide exchange entry was “++ (20% = ++)”.

Regarding “80 (IFDLSDPRF; listed as Homo sapiens) [compound 80]”, the “Binders” value in assay [1] is reported as “HLA-A*24:02”. Further, in assay [2], the Peptide exchange result is “++ (20% = ++)”.

Regarding “87 (LHLNPGLSF; listed as Homo sapiens) [compound 87]”, the “Binders” value in assay [1] is “HLA-A*24:02”. In addition, in assay [2], the Peptide exchange entry is given as “++ (20% = ++)”.

Regarding “115 (LWEEKPVCL; listed as Homo sapiens) [compound 115]”, the “Binders” value in assay [1] is “HLA-A*24:02”. For the same substance, the Peptide exchange entry in assay [2] is on record as “++ (20% = ++)”.

On to “116 (IYLTKSNLVNM; listed as Homo sapiens) [compound 116]”, for which the “Binders” value in assay [1] is “HLA-A*24:02”. In assay [2], the Peptide exchange result is reported as “++++ (75% = ++++)”.

Take “123 (TYLESSVRI; listed as Homo sapiens) [compound 123]”: the “Binders” value in assay [1] is recorded as “HLA-A*24:02”. Also, the Peptide exchange entry in assay [2] was “++++ (75% = ++++)”.

Consider “129 (IPISIFKMA; listed as Homo sapiens) [compound 129]”, for which, in assay [3], the Peptide exchange entry is reported as “+++ (≥50% = +++)”.

As to “132 (LYLETRSEF; listed as Homo sapiens) [compound 132]”, the “Binders” value in assay [1] is “HLA-A*24:02”. Further, the Peptide exchange entry in assay [2] is “++++ (75% = ++++)”.

Take “133 (KFPPSASEF; listed as Homo sapiens) [compound 133]”: the “Binders” value in assay [1] is on record as “HLA-A*24:02”. Also, in assay [2], the Peptide exchange result is recorded as “++++ (75% = ++++)”.

Take “134 (MPCTTILRI; listed as Homo sapiens) [compound 134]”: in assay [3], the Peptide exchange entry is “++++ (≥75% = ++++)”.

Consider “137 (MPIQVLKGL; listed as Homo sapiens) [compound 137]”, for which the Peptide exchange entry in assay [3] is given as “++++ (≥75% = ++++)”.

For the substance “140 (QPAPQPLL; listed as Homo sapiens) [compound 140]”, the Peptide exchange result in assay [3] is given as “+++ (≥50% = +++)”.

For “155 (MPWVLMSPF; listed as Homo sapiens) [compound 155]”, the Peptide exchange entry in assay [3] is given as “++++ (≥75% = ++++)”.

Regarding “156 (SLRVPSPAL; listed as Homo sapiens) [compound 156]”, in assay [3], the Peptide exchange entry was “+++ (≥50% = +++)”.

As to “157 (APLRAGWAA; listed as Homo sapiens) [compound 157]”, the Peptide exchange entry in assay [3] is on record as “++++ (≥75% = ++++)”.

With “158 (FQLSGPVTF; listed as Homo sapiens) [compound 158]”, in assay [1], the “Binders” value was “HLA-A*24:02”. For the same substance, the Peptide exchange result in assay [2] was “++ (20% = ++)”.

“160 (EYLGSENVF; listed as Homo sapiens) [compound 160]”: in assay [1], the “Binders” value was “HLA-A*24:02”. Also, the Peptide exchange result in assay [2] was “+++ (50% = +++)”.

For “162 (LPVHGPLPLLL; listed as Homo sapiens) [compound 162]”, in assay [3], the Peptide exchange result was “+++ (≥50% = +++)”.

Turning to “169 (RPQGVGPAA; listed as Homo sapiens) [compound 169]”, in assay [3], the Peptide exchange entry is recorded as “++++ (≥75% = ++++)”.

Turning to “175 (MPFLKVPPL; listed as Homo sapiens) [compound 175]”, the Peptide exchange result in assay [3] is listed as “++++ (≥75% = ++++)”.

For “182 (RPSLPCRSF; listed as Homo sapiens) [compound 182]”, the Peptide exchange entry in assay [3] is reported as “+++ (≥50% = +++)”.

With “184 (VVHGGMSIF; listed as Homo sapiens) [compound 184]”, the Peptide exchange result in assay [3] is listed as “++ (≥20% = ++)”.

For “185 (MPAFLSRASAL; listed as Homo sapiens) [compound 185]”, the Peptide exchange result in assay [3] was “++++ (≥75% = ++++)”.

As for “191 (APLLPGPAA; listed as Homo sapiens) [compound 191]”, the Peptide exchange result in assay [3] is on record as “++++ (≥75% = ++++)”.

Consider “192 (IPLHFSTAF; listed as Homo sapiens) [compound 192]”, for which the Peptide exchange result in assay [3] is on record as “++++ (≥75% = ++++)”.

For the substance “199 (RAPLPLLLL; listed as Homo sapiens) [compound 199]”, in assay [3], the Peptide exchange result is listed as “+++ (≥50% = +++)”.

Take “207 (LPALLRSL; listed as Homo sapiens) [compound 207]”: the Peptide exchange entry in assay [3] is “++++ (≥75% = ++++)”.

As for “208 (YVGPTRLEL; listed as Homo sapiens) [compound 208]”, the Peptide exchange entry in assay [3] is listed as “++++ (≥75% = ++++)”.

As to “210 (ASRIQVILL; listed as Homo sapiens) [compound 210]”, in assay [3], the Peptide exchange entry was “+++ (≥50% = +++)”.

Regarding “214 (RPSPVRVAAL; listed as Homo sapiens) [compound 214]”, the Peptide exchange entry in assay [3] is “++++ (≥75% = ++++)”.

In the case of “215 (TPLTRTTL; listed as Homo sapiens) [compound 215]”, in assay [3], the Peptide exchange result was “+++ (≥50% = +++)”.
